The results in this text go back to the supplement of paper PMC12042874.

± gives the uncertainty stated by the source.

The nature of the data set: amyloid nucleation score (Sup35N fusion, yeast selection) (log enrichment); library NNK2; higher = more nucleation; inactive = no reads after selection. The method in brief:
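Peptides of 20 random codons fused to Sup35N were expressed in psi-negative yeast, induced 24 hours with 100 μM copper sulfate, then grown 7 days at 30°C on medium lacking adenine and uracil. Input and output plasmid inserts were Illumina-sequenced. Nucleation score is the DiMSum log enrichment of output over input reads, centred on the mode score of non-aggregating sequences, excluding sequences with under 100 input reads. Random libraries had three technical output replicates.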
Take MFYPRSSFSWDFPTFGLSLP: the amyloid nucleation score result is “inactive”.
For FGLLLWYLCFSHIG, the amyloid nucleation score entry is “inactive”.
Then NKLTVPYTVDVNDTILDRGK, with -0.015 ± 0.46; and DVKKYLRGYCIRPCLLSYLI, with -0.807 ± 0.79.
As for GNTGCGVRACSGVCGKMDLV, the amyloid nucleation score worked out at 0.8 ± 0.27.
TSNNVCCARHPI: the amyloid nucleation score was determined as 1.37 ± 0.29.
As to QYMYLYIKRMMYSSTKKF, the amyloid nucleation score result was “inactive”.
WILVGFIIGTKWVSRPTTDC gave an amyloid nucleation score of 3.61 ± 0.056.
Turning to RGANNGMCYFMTRRKWLLMV, the amyloid nucleation score amounted to 0.813 ± 0.56.
The substance FPIAVVKRALDLAVNGLESD yielded an amyloid nucleation score of 0.021 ± 0.44.
The substance THQRAYCFSSVYWVNVSKSG registered an amyloid nucleation score of -0.006 ± 0.74.
On to DAWFVINHHPIEYLSLRVWR, for which the amyloid nucleation score worked out at 0.98 ± 0.27.
For the substance FYPAEFYGKGLVDRTLFFIC, the amyloid nucleation score is 0.12 ± 0.18.
The substance FSSRNFNLCRKTYWWCDSYQ came in with an amyloid nucleation score of -0.066 ± 1.
Then NWVWLKWRITQYFIHSASSS, with 1.43 ± 0.19; and STYPILR, with 2.02 ± 0.18.
For VMIWVTA, the amyloid nucleation score amounted to 0.637 ± 0.25.
On to IQLDTESSLVKRRAWYG, for which the amyloid nucleation score came to 0.34 ± 0.64.
Substance VQFPSVMFICRIARRRTY returned an amyloid nucleation score of 0.746 ± 0.67.
In turn, VIGASRRVWHRLKHKA came in with an amyloid nucleation score of 0.994 ± 0.34.
With IFPGILH, the amyloid nucleation score is -1.83 ± 0.63.
YIYETTLCYNTIPGL had an amyloid nucleation score of -0.848 ± 0.29.
Turning to RMVVVVSKRY, the amyloid nucleation score amounted to 1.73 ± 0.17.
On to TVTVDIFSKEWTGGTNFCDI, for which the amyloid nucleation score was -0.179 ± 0.76.
For FVYVIFQSNMGPYWRNRRLL, the amyloid nucleation score was 0.636 ± 0.81.
In the case of NCVNPDYGLLQQLSRYLVVC it was -0.764 ± 0.64; in that of VLINEHYGYRFFCFNCADGK, 8.228 ± 0.036; in that of IPASDRYKVFRLWHQFRLVG, -0.001 ± 0.56.
Regarding HCGVLVDISFEHALIFR, the amyloid nucleation score is -1.99 ± 0.78.
Then TYLDGAYLLFDSARFAKAVK, with 0.144 ± 0.24.
With DYKDYNLCGITHMESF, the amyloid nucleation score was -0.442 ± 1.
For the substance FRIIYKWCLMPLMPGCGGM, the amyloid nucleation score result was “inactive”.
In the case of SSSLSWLS it was -0.609 ± 0.76; in that of RIMPTLLKIPYLWYQSLSCD, -0.081 ± 0.22; in that of RTIVCF, -0.699 ± 1.
In turn, WCSVLRDNKLSR showed an amyloid nucleation score of -1.09 ± 0.45.
FSLGQKLLFCFCEVCWLNVA gave an amyloid nucleation score of 2.97 ± 0.1.
As for HSLMQLYLVIFLAHFQSYGL, the amyloid nucleation score is 0.604 ± 0.44.
For the substance FSSNTKSNKRIDV, the amyloid nucleation score is 0.147 ± 0.8.
Turning to YYLSFCVSNAGAPGMDLMGQ, the amyloid nucleation score came out at 0.328 ± 0.65.
RSAILEEDFDCHMYWGL had an amyloid nucleation score of 0.916 ± 0.31.
ISDKSVV: the amyloid nucleation score entry is “inactive”.
Then HSSGCYF, with 0.081 ± 1.1; and SCRDNIRGQRLGHHAGLWSR, with 0.479 ± 0.2; and SSIRLFCFTMAHVHMTDSHD, with 4.53 ± 0.11.
GLFVRQGGLRVCWVLPVHAA: the amyloid nucleation score amounted to 0.645 ± 0.41.
As to KSDTMLRDYKKWVGHELYTR, the amyloid nucleation score was found to be 0.066 ± 0.54.
For the substance FCEICPKYYALFEEGQLSGR, the amyloid nucleation score stood at 3.62 ± 0.068.
Regarding SFIHFPFWFILHNRALTRRV, the amyloid nucleation score was determined as 0.057 ± 1.1.
Regarding YVFIYESPYSSRSCPNALVS, the amyloid nucleation score was -0.011 ± 0.46.
In the case of AELSA it was 0.606 ± 0.8; in that of FRMVSKPMLYNIMRFTSMLV, 0.057 ± 1.1; in that of YGSSGK, -0.362 ± 0.38.
As to KNNTADWWIRSNSERYRN, the amyloid nucleation score is -0.039 ± 0.46.
In the case of LNSMTILLSN it was 0.54 ± 0.56; in that of YVNMAVNLTTDGQMTWNSRT, 6.65 ± 0.035.
LLLLWYRNQPHITDAFRQEL: the amyloid nucleation score was 0.733 ± 0.44.
Substance VFVIWCFVIICVSLLSVVDR returned an amyloid nucleation score of -0.795 ± 0.49.
For the substance KWRAFYPSTGSLRVEILSF, the amyloid nucleation score was -1.22 ± 1.1.
For the substance TFPMEFLPF, the amyloid nucleation score was -1.12 ± 0.49.
Regarding FGYFNVHSKSSGIMKWCGQC, the amyloid nucleation score was -0.612 ± 0.54.
Then NVHCILMSGVMGIQYRWKVL, with 0.395 ± 0.51.
Substance WFAGFMCRVLACTFSALKLS yielded an amyloid nucleation score of -0.917 ± 0.78.
In the case of VWMYITSW it was -1.12 ± 0.55; in that of FEMGFHVWDM, “inactive”; in that of ELVRDASECRYIIVCLNSVA, -0.047 ± 0.65.
RLNAMEESIKSNIYSFWSFY: the amyloid nucleation score entry was “inactive”.
Substance ERNLLRNSDDMD came in with an amyloid nucleation score of -0.642 ± 1.1.
The substance IHPRSFRNVCLSSHSEMGG yielded an amyloid nucleation score of -0.813 ± 0.76.
Then DIAKLLCYILCFNGKSRRWG, with 0.127 ± 0.55; and YEPSATEPRLRRFHGEARLL, with 0.32 ± 0.65.
Then SSCRGIEWRFQTGNITQWLG, with -0.165 ± 0.23.
Turning to IVWLMHSSSHRT, the amyloid nucleation score was found to be 5.79 ± 0.076.
Substance MVIQHIDRPDYWISWGHNKG came in with an amyloid nucleation score of 5.112 ± 0.048.
Take GNYISICESFF: the amyloid nucleation score is -0.177 ± 1.
Then RMLCSHINYLIVGMG, with -0.061 ± 0.28.
On to FFNLNYMGFHSDIGSLIYPC, for which the amyloid nucleation score entry is “inactive”.
The substance VDEQSLNR registered an amyloid nucleation score of 0.62 ± 0.41.
For SMRYDRDNHKHPFNIEAMRY, the amyloid nucleation score was -0.096 ± 0.46.
With CAVDLFGVAIRALMFRSWGC, the amyloid nucleation score entry is “inactive”.
Consider SLCPRYYGF, for which the amyloid nucleation score entry was “inactive”.
Substance LFLGLFKLCNLASFMLWSWF came in with an amyloid nucleation score of -0.627 ± 1.
In the case of LPFMECC, the amyloid nucleation score is -0.696 ± 1.
Substance CLQFLSRYRVWPSHSFWGEY yielded an amyloid nucleation score of 3.68 ± 0.07.
In the case of EVERGIN it was 0.62 ± 0.56.
Then IPVSMWQDRVTEVLDFGLRK, with 0.389 ± 0.8; and YWIRIRIQCFQGSIEQDTER, with 4.96 ± 0.066; and FSVRLSELSMTNLSTQYEIS, with 1.82 ± 0.15.
TVWVIVERYMGFLYFLYNTS: the amyloid nucleation score entry is “inactive”.
Take CSVRSSAIYIRSCHHGWFYC: the amyloid nucleation score was -1.19 ± 1.1.
The substance NPTYYRARGE had an amyloid nucleation score of 2.96 ± 0.11.
In the case of GNRDSLNMFVCDRILRCPVQ it was -0.273 ± 0.33; in that of AIEKSQYLSNVDYRICSLMT, -0.336 ± 0.23; in that of YVSLNNRQKFLAARLPKLEG, -0.51 ± 0.64.
Consider FNRLA, for which the amyloid nucleation score was -0.603 ± 1.1.
The substance YCALWTTTE displayed an amyloid nucleation score of 1.62 ± 0.18.
VGEKCDL returned an amyloid nucleation score of -0.023 ± 0.55.
In the case of IVSVFQYRTVNIFVGFYYIR, the amyloid nucleation score entry is “inactive”.
Regarding SWCCTSIYHVRLW, the amyloid nucleation score amounted to 9.427 ± 0.058.
As to SYDLELAT, the amyloid nucleation score is 0.667 ± 0.18.
CAYGLFVNVFSVDADLRYKY: the amyloid nucleation score worked out at 7.544 ± 0.022.
In the case of VRNGMANKGNDGRAAWEVNG it was 1.25 ± 0.21; in that of SYGWFCSRVIFWRSGNFYWK, “inactive”.
In turn, RSPMWLAGLMNIYSP gave an amyloid nucleation score of 2.87 ± 0.084.
Then LSFLKVW, with -0.654 ± 0.36; and ERYVCKGC, with “inactive”; and NRFQYGCNSGSMTVWGALWF, with 0.706 ± 0.81.
In the case of PDRVLLYKLTVRRFTGCDWG it was 2.32 ± 0.17.
Then THLKYTFWIFV, with 2.62 ± 0.14.
On to RFRRSVFMLMHGWRSTVFIV, for which the amyloid nucleation score is 1.07 ± 0.34.
For LANYYFYYKDDVWQVMLWCT, the amyloid nucleation score was -1.15 ± 0.36.
Then KRSLLQKLCC, with -0.421 ± 0.61; and SFHFCWFRYNWCYFGLS, with 0.058 ± 1; and GFVDELLNKRRLMCLIKTWK, with 0.179 ± 0.44.
Consider FFGAFGPRWGNYENITLCSY, for which the amyloid nucleation score result was “inactive”.
In the case of VRQYPSTVPSLWLYVGSRH it was 4.19 ± 0.069.
On to SVKQGN, for which the amyloid nucleation score came to 0.132 ± 0.22.
Regarding VDRDSPKYVHA, the amyloid nucleation score turned out to be 0.917 ± 0.32.
TDVAY returned an amyloid nucleation score of 0.258 ± 0.2.
For NGVKEYLGNTSWKCTNRA, the amyloid nucleation score was -0.137 ± 0.5.
For the substance GLLGAVDRTVR, the amyloid nucleation score amounted to 0.238 ± 0.56.
Regarding VVWSN, the amyloid nucleation score was 0.845 ± 0.29.
Then MLRLFQYFLGTNFWGHQGFS, with -0.724 ± 1.1; and LVFRGAVCDITRAG, with -0.682 ± 0.76; and MCFAHVRNFSEW, with 1.47 ± 0.15.
Regarding VVYPCFSIMLQMEVLYIVFI, the amyloid nucleation score was determined as 1.33 ± 0.33.
In the case of VMHFDLQICDRVHSRKSAPR, the amyloid nucleation score was 8.523 ± 0.038.
Then LRFMNPRSALRYTKVSCTGN, with -0.587 ± 0.54.
Consider HGQARWGR, for which the amyloid nucleation score turned out to be 1.47 ± 0.28.
Take HCTWSQPPSS: the amyloid nucleation score is -0.001 ± 0.5.
In the case of DITYEYTTWGFLRRQAIRRP it was 3.63 ± 0.089; in that of FKSLLCLFAWRLVTFHVGE, -0.73 ± 1.1; in that of TCWKDYIYIFALVNYSGHRA, “inactive”.
In turn, RFSELSHK gave an amyloid nucleation score of -0.144 ± 0.26.
Regarding FKYVFCSDEVGSMYVMCNCM, the amyloid nucleation score stood at 8.568 ± 0.034.
Then ASAGCTTGTLGGPHHRHMIV, with 0.523 ± 0.26.
RTYSMGGIR had an amyloid nucleation score of -0.849 ± 1.1.
Then RDSFQCSY, with -0.939 ± 0.54; and VQGPHSFNGVGCRPFSNERR, with -0.202 ± 1.1.
For the substance FFTRRLNSNWMCFLADNCYR, the amyloid nucleation score was -0.439 ± 0.64.
Take SGCVA: the amyloid nucleation score was 0.474 ± 0.24.
Substance MIFCCTRK registered an amyloid nucleation score of 8.708 ± 0.078.
